± gives the standard deviation of the averaged measurements.
System: ATP
Assay: switch fluorescence ratio, 500 uM ATP over buffer (Cy3 cluster intensity, sum of 5 cycles each) (fold (ratio)); higher = stronger signal-on switching upon ATP binding; sequences stand for … in TCGTCGGCAGCGTCAGATGTGTATAAGAGACAGTTTTTTTTTTTTTTTTTTTTTTTTT…TC
Details: aptamer strand: ATP DNA aptamer (quencher-CACCTGGGGGAGTATTGCGGAGGAAGG + anchor), 100 nM annealed; ATP concentration: 500 uM
Procedure, shortened: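 Between each of five buffer/ATP cycles, the flow-cell was stripped with NaOH and re-annealed. Each cycle imaged Cy3-labelled switching-strand clusters, annealed to 100 nM quencher-labelled ATP aptamer on a modified Illumina MiSeq flow-cell, first in selection buffer and then after 15 min with 500 uM ATP at 22 °C. The fluorescence ratio is summed target-cycle over summed buffer-cycle Cy3 intensity per cluster, averaged per switch-domain sequence, with clusters outside 100-1000 RFU excluded.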
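Further: ATP exposure 15 min at 22 °C before imaging.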

Row | Sequence | switch fluorescence ratio
1 | GGCGAAAGGG | 1.02 ± 0.026
2 | GGCGAAGTCG | 0.999 ± 0.023
3 | GGCGAGGGCT | 0.982 ± 0.051
4 | GGCGAGTTAC | 1.021 ± 0.0012
5 | GGCGATACTA | 1.92 ± 0.11
6 | GGCGATCGCG | 1.02 ± 0.04
7 | GGCGCAGGAG | 1.092 ± 0.0082
8 | GGCGCCGCGG | 0.9937 ± 0.0092
9 | GGCGCCGCTG | 1.016 ± 0.003
10 | GGCGCCGGAA | 0.98 ± 0.031
11 | GGCGCGTGTC | 0.9945 ± 0.009
12 | GGCGCTAGCG | 0.993 ± 0.068
13 | GGCGCTGAGT | 1.017 ± 0.01
14 | GGCGGACAGG | 1.038 ± 0.0062
15 | GGCGGAGAGG | 1.08 ± 0.022
16 | GGCGGAGGGG | 0.998 ± 0.024
17 | GGCGGAGTAT | 1 ± 0.017
18 | GGCGGCAGGG | 1 ± 0.013
19 | GGCGGGATTG | 0.959 ± 0.041
20 | GGCGGGCGCT | 0.993 ± 0.032
21 | GGCGGGGGTC | 1.01 ± 0.029
22 | GGCGGTATAG | 1.02 ± 0.013
23 | GGCGGTGTGG | 0.981 ± 0.023
24 | GGCGTAGCTT | 1.01 ± 0.051
25 | GGCGTAGTTA | 0.985 ± 0.018

Row | Sequence | switch fluorescence ratio
26 | GGCGTCAAGG | 0.996 ± 0.026
27 | GGCGTCTTTG | 1.019 ± 0.0091
28 | GGCGTTGGGT | 0.9929 ± 0.0096
29 | GGCGTTTTAG | 0.998 ± 0.034
30 | GGCTAACGAC | 1.063 ± 0.0021
31 | GGCTAAGGTC | 1 ± 0.044
32 | GGCTAAGGTT | 0.997 ± 0.015
33 | GGCTAATGGG | 1.021 ± 0.0043
34 | GGCTAATTTT | 1.02 ± 0.011
35 | GGCTACGTTT | 1.05 ± 0.084
36 | GGCTAGGTGC | 1.24 ± 0.058
37 | GGCTATAATA | 1.01 ± 0.034
38 | GGCTATGGGT | 1.02 ± 0.024
39 | GGCTATTGAT | 1.004 ± 0.0073
40 | GGCTATTGCG | 0.995 ± 0.016
41 | GGCTCAGGGC | 0.9793 ± 0.0024
42 | GGCTCATCA | 1.01 ± 0.023
43 | GGCTCCAACG | 1.06 ± 0.013
44 | GGCTCCGGCG | 1.04 ± 0.032
45 | GGCTCCGGTT | 1.19 ± 0.084
46 | GGCTCTGATG | 1.01 ± 0.011
47 | GGCTGAAAAA | 0.915 ± 0.056
48 | GGCTGAACGT | 1 ± 0.012
49 | GGCTGAAGGG | 0.996 ± 0.014
50 | GGCTGAGCCT | 0.991 ± 0.038

Row | Sequence | switch fluorescence ratio
51 | GGCTGAGGGG | 0.972 ± 0.042
52 | GGCTGCATGC | 1.08 ± 0.023
53 | GGCTGGCTGA | 0.987 ± 0.045
54 | GGCTGGGATT | 0.964 ± 0.02
55 | GGCTGGGGT | 1.02 ± 0.034
56 | GGCTGTGGCG | 0.9761 ± 0.0015
57 | GGCTGTGTTA | 0.9958 ± 0.0024
58 | GGCTGTTTTT | 0.962 ± 0.034
59 | GGCTTAAGCA | 0.988 ± 0.025
60 | GGCTTAGGGC | 1.02 ± 0.027
61 | GGCTTAGTTG | 0.982 ± 0.0024
62 | GGCTTATTGG | 0.969 ± 0.016
63 | GGCTTCTTGT | 1.01 ± 0.009
64 | GGCTTTTGGA | 0.982 ± 0.014
65 | GGCTTTTTTC | 0.993 ± 0.021
66 | GGGAAAAAAC | 1.013 ± 0.0064
67 | GGGAAAAAGT | 0.985 ± 0.027
68 | GGGAAAAGGC | 1.02 ± 0.035
69 | GGGAAAATA | 0.969 ± 0.018
70 | GGGAAAATAG | 0.99 ± 0.012
71 | GGGAAAGATT | 1.005 ± 0.01
72 | GGGAAAGCGT | 1.03 ± 0.035
73 | GGGAAAGGAC | 1.03 ± 0.032
74 | GGGAAATAGG | 1.01 ± 0.023
75 | GGGAAATCGT | 1.02 ± 0.012

Row | Sequence | switch fluorescence ratio
76 | GGGAACCGGA | 1.03 ± 0.17
77 | GGGAAGACTT | 1.02 ± 0.087
78 | GGGAAGAGGC | 1.01 ± 0.038
79 | GGGAAGGTAT | 0.992 ± 0.017
80 | GGGAAGGTTA | 0.993 ± 0.017
81 | GGGAATAGAG | 0.99 ± 0.035
82 | GGGAATGATC | 1.01 ± 0.034
83 | GGGAATGTAG | 1.01 ± 0.018
84 | GGGAATTCTG | 0.985 ± 0.023
85 | GGGAATTGGT | 0.979 ± 0.02
86 | GGGACAGCAT | 0.996 ± 0.029
87 | GGGACAGCGT | 1.03 ± 0.025
88 | GGGACAGGTA | 1.02 ± 0.022
89 | GGGACATGGG | 0.972 ± 0.041
90 | GGGACCGAAT | 1.004 ± 0.0056
91 | GGGACCGGTT | 0.99 ± 0.03
92 | GGGACCTAAG | 1 ± 0.024
93 | GGGACGGCTC | 0.993 ± 0.049
94 | GGGACGGGC | 0.933 ± 0.078
95 | GGGACGTTAG | 1.09 ± 0.034
96 | GGGACTAGAG | 0.9744 ± 0.0061
97 | GGGACTAGTT | 0.959 ± 0.046
98 | GGGAGAAATT | 1.02 ± 0.061
99 | GGGAGAAGCG | 0.982 ± 0.014
100 | GGGAGAATTT | 1.29 ± 0.43
